Numbered stars: 1 amine (or outer) side, 2 acyl side, 3 side chain; on linkers, the order of the positions; unused ones are H or OH. Bridge positions count the residues as written; N and C are the ends. Side chains are listed from the residue outwards. Ends that are not written are not given here. * marks the point of attachment. C20 diacid = O=C(O)CCCCCCCCCCCCCCCCCCC(=O)*; γGlu = O=C(O)[C@H](CCC(=O)[*:2])N[*:1]
Tests used:
[1] = biological target: T1, human calcitonin receptor (human, UniProt P30988 25-474); assay: ratio of binding IC50s: human calcitonin receptor over human amylin receptor (reference)
T1 construct: whole, on cells; also called hCTR; hCT
T1 sequence (looked up): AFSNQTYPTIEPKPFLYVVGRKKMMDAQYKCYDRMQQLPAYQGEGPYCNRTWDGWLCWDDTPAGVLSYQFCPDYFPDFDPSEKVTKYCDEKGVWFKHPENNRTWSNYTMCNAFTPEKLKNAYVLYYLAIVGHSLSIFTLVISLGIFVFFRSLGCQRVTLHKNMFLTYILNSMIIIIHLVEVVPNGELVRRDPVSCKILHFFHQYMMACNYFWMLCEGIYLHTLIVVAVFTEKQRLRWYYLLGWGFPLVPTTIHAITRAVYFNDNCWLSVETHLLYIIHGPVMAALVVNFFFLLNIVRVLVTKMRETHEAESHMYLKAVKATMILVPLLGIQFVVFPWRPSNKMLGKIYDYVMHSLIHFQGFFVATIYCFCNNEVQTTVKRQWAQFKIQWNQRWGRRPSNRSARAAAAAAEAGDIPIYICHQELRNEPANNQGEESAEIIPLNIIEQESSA
Procedure, shortened: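 Competition binding by SPA uses membrane preparations (35 ng/μL final) in pH 7.4 Hepes buffer with 1 mM CaCl2 and 5 mM MgCl₂. Incubation lasts 120 min at 25° C, and IC₅₀ comes from one-site fitting.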

rat calcitonin receptor [2] = biological target: T2, rat calcitonin receptor (rat, UniProt P32214 25-516); assay: ratio of binding IC50s: rat calcitonin receptor over rat amylin receptor (reference)
T2 construct: whole, on cells; also called rCTR; rat calcitonin (a) receptor
T2 sequence (looked up): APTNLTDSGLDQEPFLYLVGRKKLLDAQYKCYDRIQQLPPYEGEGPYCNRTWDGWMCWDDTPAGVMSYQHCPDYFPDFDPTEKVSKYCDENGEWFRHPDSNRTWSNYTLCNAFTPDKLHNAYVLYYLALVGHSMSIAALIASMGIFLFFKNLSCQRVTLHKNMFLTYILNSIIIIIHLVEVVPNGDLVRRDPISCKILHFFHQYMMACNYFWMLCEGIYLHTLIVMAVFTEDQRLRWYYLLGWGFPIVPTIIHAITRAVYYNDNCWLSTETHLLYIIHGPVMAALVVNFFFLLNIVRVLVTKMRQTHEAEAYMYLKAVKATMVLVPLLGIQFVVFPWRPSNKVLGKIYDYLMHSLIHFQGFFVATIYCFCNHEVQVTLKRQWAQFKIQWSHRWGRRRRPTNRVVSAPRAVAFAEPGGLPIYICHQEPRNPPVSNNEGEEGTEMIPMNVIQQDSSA

[3] = biological target: T3, rat amylin receptor (rat calcitonin receptor + rat RAMP 3) (rat, UniProt P32214 25-516; Q9JJ73 23-147); assay: SPA competition with 125I-rat amylin, membranes of BHK cells with rat calcitonin receptor + rat RAMP3 (Assay VI)
T3 construct: whole, on cells; also called rAmylin-R; rat amylin 3(a) receptor
T3 sequence (looked up) 1: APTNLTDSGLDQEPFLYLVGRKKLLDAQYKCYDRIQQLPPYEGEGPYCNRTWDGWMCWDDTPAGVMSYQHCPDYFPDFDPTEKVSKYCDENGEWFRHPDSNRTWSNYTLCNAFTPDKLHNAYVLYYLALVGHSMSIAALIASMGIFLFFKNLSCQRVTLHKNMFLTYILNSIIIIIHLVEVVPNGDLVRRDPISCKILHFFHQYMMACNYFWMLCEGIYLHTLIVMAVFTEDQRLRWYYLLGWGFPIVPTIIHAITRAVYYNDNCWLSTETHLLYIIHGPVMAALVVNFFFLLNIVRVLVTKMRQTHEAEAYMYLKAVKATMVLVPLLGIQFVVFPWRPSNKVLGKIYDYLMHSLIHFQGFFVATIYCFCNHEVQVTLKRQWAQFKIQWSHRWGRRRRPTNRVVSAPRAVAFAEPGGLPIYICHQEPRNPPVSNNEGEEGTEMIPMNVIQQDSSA
T3 sequence (looked up) 2: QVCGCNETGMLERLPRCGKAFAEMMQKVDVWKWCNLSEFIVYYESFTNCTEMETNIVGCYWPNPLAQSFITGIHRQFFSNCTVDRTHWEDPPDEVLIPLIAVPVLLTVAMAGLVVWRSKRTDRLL

rat calcitonin receptor [4] = biological target: T2, rat calcitonin receptor; assay: SPA competition with 125I-calcitonin, membranes of BHK cells with rat calcitonin receptor (Assay VIII)

B1: N^ε1-[(4S)-4-carboxy-4-(19-carboxynonadecanoylamino)butanoyl]-[His14,Arg17,Pro21,Pro27]-h-amylin (peptide)
peptide: K([γGlu-C20 diacid])CNTATCATQRLAHFLRHSSPNFGAIPSSTNVGSNTY-NH2
modifications: disulfide 2-7; N-terminus assumed
SMILES: CC[C@H](C)[C@H](NC(=O)[C@H](C)NC(=O)CNC(=O)[C@H](Cc1ccccc1)NC(=O)[C@H](CC(N)=O)NC(=O)[C@@H]1CCCN1C(=O)[C@H](CO)NC(=O)[C@H](CO)NC(=O)[C@H](Cc1c[nH]cn1)NC(=O)[C@H](CCCNC(=N)N)NC(=O)[C@H](CC(C)C)NC(=O)[C@H](Cc1ccccc1)NC(=O)[C@H](Cc1c[nH]cn1)NC(=O)[C@H](C)NC(=O)[C@H](CC(C)C)NC(=O)[C@H](CCCNC(=N)N)NC(=O)[C@H](CCC(N)=O)NC(=O)[C@@H](NC(=O)[C@H](C)NC(=O)[C@@H]1CSSC[C@H](NC(=O)[C@@H](N)CCCCNC(=O)CC[C@H](NC(=O)CCCCCCCCCCCCCCCCCCC(=O)O)C(=O)O)C(=O)N[C@@H](CC(N)=O)C(=O)N[C@@H]([C@@H](C)O)C(=O)N[C@@H](C)C(=O)N[C@@H]([C@@H](C)O)C(=O)N1)[C@@H](C)O)C(=O)N1CCC[C@H]1C(=O)N[C@@H](CO)C(=O)N[C@@H](CO)C(=O)N[C@H](C(=O)N[C@@H](CC(N)=O)C(=O)N[C@H](C(=O)NCC(=O)N[C@@H](CO)C(=O)N[C@@H](CC(N)=O)C(=O)N[C@H](C(=O)N[C@@H](Cc1ccc(O)cc1)C(N)=O)[C@@H](C)O)C(C)C)[C@@H](C)O
notes: synthetic analogue of human amylin; also called compound 70
[1]
  Ratio hCT/hAmylin binding: 60.8
Rat calcitonin receptor [2]
  Ratio rCT/rAmylin binding: 96.5
[3]
  IC50: 0.355 nM
Rat calcitonin receptor [4]
  IC50: 34.2 nM

Reference: US20140087995A1 (published 2014)
